Test [1] has as its target ubiquitin_(G76C), fluorescently labelled (human) (UniProt P0CG47). As to the kind of experiment: other fluorescence titration.
Test [2] addresses K63-linked diubiquitin (ubiquitin_(K63R) joined to ubiquitin_(G76C)), fluorescently labelled (human) (UniProt P0CG47). Description: other fluorescence titration.
Test [3] addresses K48-linked diubiquitin (ubiquitin_(K48R) joined to ubiquitin_(G76C)), fluorescently labelled (human) (UniProt P0CG47). As to the kind of experiment: other fluorescence titration.
The next test deals with ubiquitin (Homo sapiens) (UniProt P0CG47). The conditions noted are these: cited from earlier work.
The target of test [4] is K48-linked diubiquitin (Homo sapiens) (UniProt P0CG47). To be noted: cited from earlier work.

pKd: −log10 of the molar value.

The values below come from article PMC6545606.

A word on the pKd: it is the negative decadic logarithm of the Kd, by convention in mol/L.

Chain of S5a (P55036 whole entry): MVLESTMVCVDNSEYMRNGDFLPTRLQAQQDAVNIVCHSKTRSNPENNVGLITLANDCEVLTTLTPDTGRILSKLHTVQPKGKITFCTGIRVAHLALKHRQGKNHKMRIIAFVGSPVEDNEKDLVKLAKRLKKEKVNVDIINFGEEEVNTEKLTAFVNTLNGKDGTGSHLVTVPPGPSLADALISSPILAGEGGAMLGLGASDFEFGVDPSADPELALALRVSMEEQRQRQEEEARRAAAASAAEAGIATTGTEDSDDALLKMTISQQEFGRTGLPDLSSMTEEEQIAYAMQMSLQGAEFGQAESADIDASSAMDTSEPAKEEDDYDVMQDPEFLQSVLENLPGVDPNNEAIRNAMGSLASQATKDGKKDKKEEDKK

“StoD (S. Typhi outer protein D), full-length, untagged (enzyme)”: the pKd in test [1] is 4.26; in test [2] it was 5.25; in test [3], 4.82.
In the case of S5a (from UniProt P55036), the values for the pKd (with ubiquitin (Homo sapiens); in test [4]) were 4.14 and 5.05, respectively.
